A word on the Kd: it is a measure of binding affinity in units of concentration. By stoichiometry N is commonly meant a count of units in the complex or per binding partner.

Data set [1] addresses Tmod1s1 (res. 1–38 of Tmod1). The data set is described as follows: CD thermal unfolding at 222 nm of Tpm1.1 model peptide complexes with Tmod1s1. Type of data set: binding, Gallus gallus.
The conditions of data set [2]: peptide alone, versus WT αTM1a1-21Zip.
Data set [3] deals with Lmod2s1 (N-terminal residues 2-41 of leiomodin-2) (human) (UniProt Q6P5Q4). The data set is described as follows: NMR titration. The settings on record: scale: two-chained αTM1a_(1-14)Zip molecule per Lmod2s1.
Sequence of UniProt Q6P5Q4 (Q6P5Q4 2-41): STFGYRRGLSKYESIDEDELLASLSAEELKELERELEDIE
The target is the same in data set [4]. The data set is described as follows: circular dichroism, thermal unfolding. Background: Circular dichroism is widely used to follow secondary structure.
Data set [5] deals with Tmod1s1 peptide (residues 1-38 of tropomodulin-1) (Gallus gallus). Kind of data set: circular dichroism, thermal unfolding.

On to “H-GMDAIKKKMQMLKLDNENALDRNYHLENEVARLKKLVGER-OH [αTM1a1–21Zip[K15N]]”, for which the Kd in data set [1] (read-out: Kd (30°C,µM), Tmod1s1, 30°C, Kd=exp(−ΔΔG/RT) from CD unfolding of the complex and of the Tpm1.1 peptide alone, 40 µM equimolar, 10 mM sodium phosphate pH 7.0, 100 mM NaCl, duplicates) stood at 3.77 ± 0.01 µM. The “fold reduction of affinity of Tmod1s1 by the K15N mutation” value in data set [1] (versus WT αTM1a1-21Zip, P<0.001, One Way ANOVA) is recorded as “four-fold”. Further, the “decrease in the Tm caused by the K15N mutation” value in data set [2] was ~ 6 °C.
In turn, “αTM1a_(1-14)Zip, model Tpm1.1 peptide (from UniProt P09493-1 1-14)” had a stoichiometry N in data set [3] of 1.
With “αTM1a_(1-21)Zip, model Tpm1.1 peptide (from UniProt P09493-1 1-21)”, the Kd in data set [4] is 370 nM; in data set [5], 1000 nM.
The matching figures for “αTM1a_(1-21)Zip[K15N], model Tpm1.1 peptide with the dilated cardiomyopathy-associated mutation K15N (from UniProt P09493-1 1-21)”: 2310 nM and 3770 nM.

For the origin of these results see PMC5079754 (Biochimica et biophysica acta, 2016).
